Experimental data taken from patent publication US20090175847A1.

Legend:
Aβ(1-42) monomer (human) = assay: dot blot densitometry; antigen: Aβ(1-42) monomer, 0.1% NH4OH; the dot is read as a thousands separator (no dot in column 1 of panel A)
[1] = molecular target: Aβ(1-42) globulomer (human) (UniProt P05067); assay: dot blot densitometry; antigen: Aβ(1-42) globulomer
Aβ(1-40) monomer (human) = assay: dot blot densitometry; antigen: Aβ(1-40) monomer, 0.1% NH4OH; the dot is read as a thousands separator
Aβ(1-42) fibrils (human) = Aβ(1-42) fibrils (human) (UniProt P05067); assay: dot blot densitometry; antigen: Aβ(1-42) fibril; the dot is read as a thousands separator
[2] = molecular target: Aβ(20-42) globulomer (human); assay: dot blot densitometry; antigen: Aβ(20-42) globulomer (the reference of the ratio)
Sequence of Aβ(20-42) globulomer (human) (peptide, as listed by the source): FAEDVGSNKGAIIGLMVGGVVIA

Sequence of Aβ(1-42) globulomer (human) (P05067 672-713 limits assumed): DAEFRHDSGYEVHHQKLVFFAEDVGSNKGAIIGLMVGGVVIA
Sequence of Aβ(1-42) monomer (human) (peptide, as listed by the source): as the sequence (P05067 672-713 limits assumed) above
Sequence of Aβ(1-42) fibrils (human) (P05067 672-713 limits assumed): as above
Sequence of Aβ(1-40) monomer (human) (peptide, as listed by the source): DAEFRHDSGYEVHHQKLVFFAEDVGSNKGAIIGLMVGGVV

B1: humanized antibody 5F7hum8 (antibody, IgG1, V domains shown)
VH: EVQLVQSGAEVKKPGASVKVSCKASGYTFTTFYIHWVRQAPGQGLEWIGMIGPGSGNTYYNEMFKDKATLTVDTSTSTAYMELSSLRSEDTAVYYCARAKSARAAWFAYWGQGTLVTVSS
VL: DIVMTQSPLSLPVTPGEPASISCRSSQSVVQSNGNTYLEWYLQKPGQSPQLLIYKVSNRFSGVPDRFSGSGSGTDFTLKISRVEAEDVGVYYCFQGSHVPPTFGGGTKVEIKR
Aβ(1-42) monomer (human)
  relation between recognition of Aβ(20-42) globulomer and the respective Aβ form: 10400
[1]
  relation between recognition of Aβ(20-42) globulomer and the respective Aβ form: 17
Aβ(1-40) monomer (human)
  relation between recognition of Aβ(20-42) globulomer and the respective Aβ form: > 10000
Aβ(1-42) fibrils (human)
  relation between recognition of Aβ(20-42) globulomer and the respective Aβ form: > 10000
[2]
  relation between recognition of Aβ(20-42) globulomer and the respective Aβ form: 1
